According to US20160264649A1:

Tests used:
Experiment in all cases: cell-based or functional assay
[1] = molecular target: HIV-1 MGRM-F1-013 Env (HIV-1)
[2] = molecular target: HIV-1 94UG103 Env (HIV-1)
[3] = molecular target: HIV-1 92RW008 Env (HIV-1)
[4] = molecular target: HIV-1 MGRM-A-012 Env (HIV-1)
[5] = molecular target: HIV-1 MGRM-A-003 Env (HIV-1)
[6] = molecular target: HIV-1 92RW024 Env (HIV-1)
[7] = molecular target: HIV-1 MGRM-A-004 Env (HIV-1)
[8] = molecular target: HIV-1 MGRM-A-005 Env (HIV-1)
[9] = molecular target: HIV-1 MGRM-A-009 Env (HIV-1)
[10] = molecular target: HIV-1 92UG037 Env (HIV-1)
[11] = molecular target: HIV-1 MGRM-A-008 Env (HIV-1)
[12] = molecular target: HIV-1 92UG031 Env (HIV-1)
[13] = molecular target: HIV-1 92RW021 Env (HIV-1)
[14] = molecular target: HIV-1 93UG077 Env (HIV-1)
[15] = molecular target: HIV-1 MGRM-A-014 Env (HIV-1)
[16] = molecular target: HIV-1 94KE105 Env (HIV-1)
[17] = molecular target: HIV-1 MGRM-A-001 Env (HIV-1)
[18] = molecular target: HIV-1 MGRM-A-006 Env (HIV-1)
[19] = molecular target: HIV-1 92RW026 Env (HIV-1)
[20] = molecular target: HIV-1 MGRM-A-007 Env (HIV-1)
[21] = molecular target: HIV-1 MGRM-A-013 Env (HIV-1)
[22] = molecular target: HIV-1 92RW009 Env (HIV-1)
[23] = molecular target: HIV-1 MGRM-A-011 Env (HIV-1)

**Q.** Which results are given for 2F5 (antibody)?
**A.** IC50 (pseudovirus neutralization) [1]: 4.57 µg/mL; neutralization IC50 [2]: 1.92 µg/mL; neutralization IC50 [3]: 10.4 µg/mL; neutralization IC50 [4]: 2.36 µg/mL; neutralization IC50 [5]: 7.37 µg/mL; neutralization IC50 [6]: 8.22 µg/mL; neutralization IC50 [7]: 7.49 µg/mL; neutralization IC50 [8]: 5.7 µg/mL; neutralization IC50 [9]: 9.4 µg/mL; neutralization IC50 [10]: 3.24 µg/mL; neutralization IC50 [11]: > 50 µg/mL; neutralization IC50 [12]: 3.81 µg/mL; neutralization IC50 [13]: 4.16 µg/mL; neutralization IC50 [14]: 3.3 µg/mL; neutralization IC50 [15]: 1.43 µg/mL; neutralization IC50 [16]: > 50 µg/mL; neutralization IC50 [17]: > 50 µg/mL; neutralization IC50 [18]: 15.7 µg/mL; neutralization IC50 [19]: 8.63 µg/mL; neutralization IC50 [20]: 16.3 µg/mL; neutralization IC50 [21]: 0.66 µg/mL; neutralization IC50 [22]: 39.1 µg/mL; neutralization IC50 [23]: > 50 µg/mL

**Q.** Which results are given for 2G12 (antibody)?
**A.** IC50 (pseudovirus neutralization) [1]: > 50 µg/mL; neutralization IC50 [2]: 48.1 µg/mL; neutralization IC50 [3]: 22.5 µg/mL; neutralization IC50 [4]: > 50 µg/mL; neutralization IC50 [5]: > 50 µg/mL; neutralization IC50 [6]: > 50 µg/mL; neutralization IC50 [7]: > 50 µg/mL; neutralization IC50 [8]: > 50 µg/mL; neutralization IC50 [9]: 7.47 µg/mL; neutralization IC50 [10]: 45.2 µg/mL; neutralization IC50 [11]: > 50 µg/mL; neutralization IC50 [12]: > 50 µg/mL; neutralization IC50 [13]: > 50 µg/mL; neutralization IC50 [14]: > 50 µg/mL; neutralization IC50 [15]: > 50 µg/mL; neutralization IC50 [16]: 7.22 µg/mL; neutralization IC50 [17]: > 50 µg/mL; neutralization IC50 [18]: 13.8 µg/mL; neutralization IC50 [19]: 17.2 µg/mL; neutralization IC50 [20]: > 50 µg/mL; neutralization IC50 [21]: > 50 µg/mL; neutralization IC50 [22]: 26.1 µg/mL; neutralization IC50 [23]: > 50 µg/mL

**Q.** For 4E10 (antibody), which neutralization IC50 [2] is on record?
**A.** 4.97 µg/mL

**Q.** And the neutralization IC50 [3]?
**A.** 14.5 µg/mL

**Q.** And the neutralization IC50 [4]?
**A.** 4.27 µg/mL

**Q.** What about the neutralization IC50 [5] of the same substance?
**A.** 5.94 µg/mL

**Q.** And the neutralization IC50 [6]?
**A.** 8.88 µg/mL

**Q.** And the neutralization IC50 [7]?
**A.** 3.14 µg/mL

**Q.** What about the neutralization IC50 [8] of the same substance?
**A.** 4.09 µg/mL

**Q.** And the neutralization IC50 [9]?
**A.** 12 µg/mL

**Q.** And the neutralization IC50 [10]?
**A.** 8.84 µg/mL

**Q.** And the neutralization IC50 [11]?
**A.** 7.59 µg/mL

**Q.** And the neutralization IC50 [12]?
**A.** 4.94 µg/mL

**Q.** What about the neutralization IC50 [13] of the same substance?
**A.** 4.87 µg/mL

**Q.** And the neutralization IC50 [14]?
**A.** 10.6 µg/mL

**Q.** What about the neutralization IC50 [15] of the same substance?
**A.** 1.74 µg/mL

**Q.** And the neutralization IC50 [16]?
**A.** 7.63 µg/mL

**Q.** What about the neutralization IC50 [17] of the same substance?
**A.** 15.1 µg/mL

**Q.** And the neutralization IC50 [18]?
**A.** 9.87 µg/mL

**Q.** And the neutralization IC50 [19]?
**A.** 12.9 µg/mL

**Q.** And the neutralization IC50 [20]?
**A.** 1.82 µg/mL

**Q.** What about the neutralization IC50 [21] of the same substance?
**A.** 1.46 µg/mL

**Q.** What about the neutralization IC50 [22] of the same substance?
**A.** > 50 µg/mL

**Q.** What about the neutralization IC50 [23] of the same substance?
**A.** 2.88 µg/mL
